Among the data in the supplement of paper PMC10567573 are protein stability index values, retold here.

B1: TRIM29 (parent)
chain: FAEKGELRKSIFSESRKPTVSIME
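Further: lentivirally expressed fusions sorted by FACS into six bins by GFP to DsRed ratio, PSI derived from sequencing read proportions per bin multiplied by bin number.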

In this data set the parent is B1. Kind of data set: protein stability index of a GFP-peptide fusion (GPS, HEK-293T) (PSI 1-6); higher = more stable. As to conditions: c terminus: a fixed tail appended.
Take FAEKGELRKSIFSESRKPTVSRME [I22R]: the protein stability index stood at 1.34. Turning to FAEKGELRKSIFSESRKPTVSWME [I22W], the protein stability index was 1.67. In the case of FAEKGELRKSIFSESRKPTVSAME [I22A], the protein stability index was found to be 2. On to FAEKGELRKSIFSESRKPTVSYME [I22Y], for which the protein stability index was found to be 1.38. The result for FAEKGELRKSIFSESRKPTVSDME [I22D] reads 1.99; that for FAEKGELRKSIFSESRKPTVSGME [I22G], 1.85. FAEKGELRKSIFSESRKPTVSPME [I22P]: the protein stability index turned out to be 2.48. On to FAEKGELRKSIFSESRKPTVSCME [I22C], for which the protein stability index is 2.68. The result for FAEKGELRKSIFSESRKPTVSSME [I22S] reads 1.78; that for FAEKGELRKSIFSESRKPTVSHME [I22H], 3.02. Consider FAEKGELRKSIFSESRKPTVSFME [I22F], for which the protein stability index amounted to 1.79. The result for FAEKGELRKSIFSESRKPTVSQME [I22Q] reads 1.55; that for FAEKGELRKSIFSESRKPTVSMME [I22M], 1.49; that for FAEKGELRKSIFSESRKPTVSNME [I22N], 1.74. As for FAEKGELRKSIFSESRKPTVSEME [I22E], the figure is 2.06; as for FAEKGELRKSIFSESRKPTVSKME [I22K], 2.31.

For FAEKGELRKSIFSESRKPTVSLME [I22L], the protein stability index worked out at 2.17. On to FAEKGELRKSIFSESRKPTVSTME [I22T], for which the protein stability index came to 2.04. As for FAEKGELRKSIFSESRKPTRSIME [V20R], the protein stability index was 1.68. For FAEKGELRKSIFSESRKPTDSIME [V20D], the protein stability index amounted to 2.02. The result for FAEKGELRKSIFSESRKPTLSIME [V20L] reads 1.23. In the case of FAEKGELRKSIFSESRKPTCSIME [V20C], the protein stability index came out at 2.13. As for FAEKGELRKSIFSESRKPTPSIME [V20P], the figure is 1.89; as for FAEKGELRKSIFSESRKPTHSIME [V20H], 2.64; as for FAEKGELRKSIFSESRKPTTSIME [V20T], 1.77. As for FAEKGELRKSIFSESRKPTMSIME [V20M], the figure is 1.92. For FAEKGELRKSIFSESRKPTISIME [V20I], the protein stability index came out at 2.12. The result for FAEKGELRKSIFSESRKPTASIME [V20A] reads 1.42; that for FAEKGELRKSIFSESRKPTKSIME [V20K], 2.08. Regarding FAEKGELRKSIFSESRKPTESIME [V20E], the protein stability index turned out to be 2.79. On to FAEKGELRKSIFSESRKPTQSIME [V20Q], for which the protein stability index was determined as 2.2. As for FAEKGELRKSIFSESRKPTYSIME [V20Y], the figure is 1.67; as for FAEKGELRKSIFSESRKPTSSIME [V20S], 2.34. As to FAEKGELRKSIFSESRKPTFSIME [V20F], the protein stability index came to 1.97.

Regarding FAEKGELRKSIFSESRKPTNSIME [V20N], the protein stability index worked out at 1.27.

As for FAEKGELRKSIFSESRKPTWSIME [V20W], the protein stability index is 2.58. Consider FAEKGELRKSIFSESRKPTGSIME [V20G], for which the protein stability index was 1.7. Turning to FAEKGELRKSIFSESRKPTVPIME [S21P], the protein stability index was found to be 1.47. For the variant FAEKGELRKSIFSESRKPTVGIME [S21G], the protein stability index came to 1.95. As for FAEKGELRKSIFSESRKPTVMIME [S21M], the figure is 2.61; as for FAEKGELRKSIFSESRKPTVCIME [S21C], 1.49; as for FAEKGELRKSIFSESRKPTVLIME [S21L], 2.05. The result for FAEKGELRKSIFSESRKPTVVIME [S21V] reads 2.17; that for FAEKGELRKSIFSESRKPTVYIME [S21Y], 2.15; that for FAEKGELRKSIFSESRKPTVTIME [S21T], 1.76. For FAEKGELRKSIFSESRKPTVHIME [S21H], the protein stability index came to 1.31. In the case of FAEKGELRKSIFSESRKPTVQIME [S21Q], the protein stability index came to 3.18. FAEKGELRKSIFSESRKPTVAIME [S21A]: the protein stability index stood at 2.12. The result for FAEKGELRKSIFSESRKPTVFIME [S21F] reads 2.61; that for FAEKGELRKSIFSESRKPTVIIME [S21I], 3.09.

Regarding FAEKGELRKSIFSESRKPTVRIME [S21R], the protein stability index was found to be 2.19. As for FAEKGELRKSIFSESRKPTVEIME [S21E], the figure is 1.76; as for FAEKGELRKSIFSESRKPTVWIME [S21W], 2.55. On to FAEKGELRKSIFSESRKPTVNIME [S21N], for which the protein stability index is 2.11. FAEKGELRKSIFSESRKPTVDIME [S21D]: the protein stability index turned out to be 1.65. The result for FAEKGELRKSIFSESRKPTVKIME [S21K] reads 2.7; that for FAEKGELRKSIFSESRKPTVSIMR [E24R], 1.3; that for FAEKGELRKSIFSESRKPTVSIMW [E24W], 2.17. With FAEKGELRKSIFSESRKPTVSIMH [E24H], the protein stability index stood at 3.14. In the case of FAEKGELRKSIFSESRKPTVSIMA [E24A], the protein stability index turned out to be 2.12. On to FAEKGELRKSIFSESRKPTVSIMT [E24T], for which the protein stability index amounted to 1.88. Consider FAEKGELRKSIFSESRKPTVSIMM [E24M], for which the protein stability index came to 2.73. As for FAEKGELRKSIFSESRKPTVSIMG [E24G], the protein stability index was 2.2. FAEKGELRKSIFSESRKPTVSIMD [E24D]: the protein stability index stood at 2.41.

With FAEKGELRKSIFSESRKPTVSIMP [E24P], the protein stability index was determined as 2.23. FAEKGELRKSIFSESRKPTVSIMI [E24I]: the protein stability index turned out to be 2.79.

FAEKGELRKSIFSESRKPTVSIMY [E24Y]: the protein stability index came to 2.54. The result for FAEKGELRKSIFSESRKPTVSIMV [E24V] reads 2.33; that for FAEKGELRKSIFSESRKPTVSIMC [E24C], 2.07. As to FAEKGELRKSIFSESRKPTVSIMS [E24S], the protein stability index turned out to be 1.65. As for FAEKGELRKSIFSESRKPTVSIMK [E24K], the figure is 1.76; as for FAEKGELRKSIFSESRKPTVSIMF [E24F], 2.22. FAEKGELRKSIFSESRKPTVSIMN [E24N]: the protein stability index amounted to 1.36. As for FAEKGELRKSIFSESRKPTVSIML [E24L], the figure is 2.98. The result for FAEKGELRKSIFSESRKPTVSIMQ [E24Q] reads 1.95; that for FAEKGELRKSIFSESRKPTVSITE [M23T], 2.22; that for FAEKGELRKSIFSESRKPTVSIQE [M23Q], 2.47. As for FAEKGELRKSIFSESRKPTVSIGE [M23G], the figure is 1.57; as for FAEKGELRKSIFSESRKPTVSIAE [M23A], 1.47. As to FAEKGELRKSIFSESRKPTVSIRE [M23R], the protein stability index was 2.22. FAEKGELRKSIFSESRKPTVSIVE [M23V]: the protein stability index is 2.01. As for FAEKGELRKSIFSESRKPTVSICE [M23C], the figure is 2.16; as for FAEKGELRKSIFSESRKPTVSIHE [M23H], 2.56. Regarding FAEKGELRKSIFSESRKPTVSISE [M23S], the protein stability index was 1.58. Turning to FAEKGELRKSIFSESRKPTVSIPE [M23P], the protein stability index came out at 1.84.

Consider FAEKGELRKSIFSESRKPTVSIEE [M23E], for which the protein stability index was determined as 1.56.

With FAEKGELRKSIFSESRKPTVSILE [M23L], the protein stability index was 1.71. The result for FAEKGELRKSIFSESRKPTVSIKE [M23K] reads 1.66; that for FAEKGELRKSIFSESRKPTVSINE [M23N], 2.38; that for FAEKGELRKSIFSESRKPTVSIFE [M23F], 1.6.

As to FAEKGELRKSIFSESRKPTVSIIE [M23I], the protein stability index stood at 1.49.

For the variant FAEKGELRKSIFSESRKPTVSIWE [M23W], the protein stability index was found to be 2.21.

With FAEKGELRKSIFSESRKPTVSIYE [M23Y], the protein stability index came to 2.2. Consider FAEKGELRKSIFSESRKPTVSIDE [M23D], for which the protein stability index amounted to 1.92.
